Results reported in patent US20250084142A1 (INTARCIA THERAPEUTICS, published 2025).
Starred links: 1 amine or outer side, 2 acyl side, 3 side chain; linkers in the order of their positions; H or OH if unused. Non-standard residues stand in square brackets, D forms with d. Groups on a side chain read outwards from the residue. No end group written: not given here. *: point of attachment. C20 diacid = O=C(O)CCCCCCCCCCCCCCCCCCC(=O)*; γGlu = O=C(O)[C@H](CCC(=O)[*:2])N[*:1]; NMeY = CN[C@@H](Cc1ccc(O)cc1)C(=O)O

T1: NPY2R
T1 sequence (P49146 1-381, species assumed, looked up): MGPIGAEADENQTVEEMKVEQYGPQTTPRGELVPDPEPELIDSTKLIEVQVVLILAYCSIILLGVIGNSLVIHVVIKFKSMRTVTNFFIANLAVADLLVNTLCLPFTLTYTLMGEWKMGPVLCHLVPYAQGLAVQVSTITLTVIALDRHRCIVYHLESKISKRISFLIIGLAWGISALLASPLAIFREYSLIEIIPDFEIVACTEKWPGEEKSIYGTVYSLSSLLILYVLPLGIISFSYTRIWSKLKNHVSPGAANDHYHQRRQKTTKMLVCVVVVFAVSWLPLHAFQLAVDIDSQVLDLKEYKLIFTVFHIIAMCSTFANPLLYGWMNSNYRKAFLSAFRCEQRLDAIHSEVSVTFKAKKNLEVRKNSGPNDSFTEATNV

T2: NPY5R
T2 sequence (Q15761 1-445, species assumed, looked up): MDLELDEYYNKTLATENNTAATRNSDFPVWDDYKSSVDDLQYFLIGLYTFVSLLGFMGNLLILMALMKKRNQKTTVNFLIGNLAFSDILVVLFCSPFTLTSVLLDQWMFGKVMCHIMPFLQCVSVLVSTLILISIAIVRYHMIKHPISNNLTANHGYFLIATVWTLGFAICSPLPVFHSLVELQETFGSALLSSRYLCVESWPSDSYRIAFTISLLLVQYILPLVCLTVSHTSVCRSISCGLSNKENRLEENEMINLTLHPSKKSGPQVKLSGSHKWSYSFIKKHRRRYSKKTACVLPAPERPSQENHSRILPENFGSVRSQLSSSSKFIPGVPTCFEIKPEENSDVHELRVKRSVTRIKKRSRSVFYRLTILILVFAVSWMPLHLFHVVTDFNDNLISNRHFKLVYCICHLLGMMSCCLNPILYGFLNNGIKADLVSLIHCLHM

B1: Compound A7 (peptide)
peptide: PKPEAPK([γGlu-γGlu-C20 diacid])KDASPEEWNRYYADARHYLNWLTRQR[NMeY]-NH2
modifications: N-terminus assumed
SMILES: CC(C)C[C@H](NC(=O)[C@H](Cc1ccc(O)cc1)NC(=O)[C@H](Cc1c[nH]cn1)NC(=O)[C@H](CCCNC(=N)N)NC(=O)[C@H](C)NC(=O)[C@H](CC(=O)O)NC(=O)[C@H](C)NC(=O)[C@H](Cc1ccc(O)cc1)NC(=O)[C@H](Cc1ccc(O)cc1)NC(=O)[C@H](CCCNC(=N)N)NC(=O)[C@H](CC(N)=O)NC(=O)[C@H](Cc1c[nH]c2ccccc12)NC(=O)[C@H](CCC(=O)O)NC(=O)[C@H](CCC(=O)O)NC(=O)[C@@H]1CCCN1C(=O)[C@H](CO)NC(=O)[C@H](C)NC(=O)[C@H](CC(=O)O)NC(=O)[C@H](CCCCN)NC(=O)[C@H](CCCCNC(=O)CC[C@H](NC(=O)CC[C@H](NC(=O)CCCCCCCCCCCCCCCCCCC(=O)O)C(=O)O)C(=O)O)NC(=O)[C@@H]1CCCN1C(=O)[C@H](C)NC(=O)[C@H](CCC(=O)O)NC(=O)[C@@H]1CCCN1C(=O)[C@H](CCCCN)NC(=O)[C@@H]1CCCN1)C(=O)N[C@@H](CC(N)=O)C(=O)N[C@@H](Cc1c[nH]c2ccccc12)C(=O)N[C@@H](CC(C)C)C(=O)N[C@H](C(=O)N[C@@H](CCCNC(=N)N)C(=O)N[C@@H](CCC(N)=O)C(=O)N[C@@H](CCCNC(=N)N)C(=O)N(C)[C@@H](Cc1ccc(O)cc1)C(N)=O)[C@@H](C)O
B2: Compound A78 (peptide)
peptide: PKPEK([γGlu-γGlu-C20 diacid])PGEDASPKEWDRYYKDLRHYLNWLTRQRF-NH2
modifications: N-terminus assumed
SMILES: CC(C)C[C@H](NC(=O)[C@H](CC(=O)O)NC(=O)[C@H](CCCCN)NC(=O)[C@H](Cc1ccc(O)cc1)NC(=O)[C@H](Cc1ccc(O)cc1)NC(=O)[C@H](CCCNC(=N)N)NC(=O)[C@H](CC(=O)O)NC(=O)[C@H](Cc1c[nH]c2ccccc12)NC(=O)[C@H](CCC(=O)O)NC(=O)[C@H](CCCCN)NC(=O)[C@@H]1CCCN1C(=O)[C@H](CO)NC(=O)[C@H](C)NC(=O)[C@H](CC(=O)O)NC(=O)[C@H](CCC(=O)O)NC(=O)CNC(=O)[C@@H]1CCCN1C(=O)[C@H](CCCCNC(=O)CC[C@H](NC(=O)CC[C@H](NC(=O)CCCCCCCCCCCCCCCCCCC(=O)O)C(=O)O)C(=O)O)NC(=O)[C@H](CCC(=O)O)NC(=O)[C@@H]1CCCN1C(=O)[C@H](CCCCN)NC(=O)[C@@H]1CCCN1)C(=O)N[C@@H](CCCNC(=N)N)C(=O)N[C@@H](Cc1c[nH]cn1)C(=O)N[C@@H](Cc1ccc(O)cc1)C(=O)N[C@@H](CC(C)C)C(=O)N[C@@H](CC(N)=O)C(=O)N[C@@H](Cc1c[nH]c2ccccc12)C(=O)N[C@@H](CC(C)C)C(=O)N[C@H](C(=O)N[C@@H](CCCNC(=N)N)C(=O)N[C@@H](CCC(N)=O)C(=O)N[C@@H](CCCNC(=N)N)C(=O)N[C@@H](Cc1ccccc1)C(N)=O)[C@@H](C)O
B3: Compound A5 (peptide)
peptide: PK([γGlu-γGlu-C20 diacid])PEAPGKDASPEEWNRYYADARHYLNWLTRQR[NMeY]-NH2
modifications: N-terminus assumed
SMILES: CC(C)C[C@H](NC(=O)[C@H](Cc1ccc(O)cc1)NC(=O)[C@H](Cc1c[nH]cn1)NC(=O)[C@H](CCCNC(=N)N)NC(=O)[C@H](C)NC(=O)[C@H](CC(=O)O)NC(=O)[C@H](C)NC(=O)[C@H](Cc1ccc(O)cc1)NC(=O)[C@H](Cc1ccc(O)cc1)NC(=O)[C@H](CCCNC(=N)N)NC(=O)[C@H](CC(N)=O)NC(=O)[C@H](Cc1c[nH]c2ccccc12)NC(=O)[C@H](CCC(=O)O)NC(=O)[C@H](CCC(=O)O)NC(=O)[C@@H]1CCCN1C(=O)[C@H](CO)NC(=O)[C@H](C)NC(=O)[C@H](CC(=O)O)NC(=O)[C@H](CCCCN)NC(=O)CNC(=O)[C@@H]1CCCN1C(=O)[C@H](C)NC(=O)[C@H](CCC(=O)O)NC(=O)[C@@H]1CCCN1C(=O)[C@H](CCCCNC(=O)CC[C@H](NC(=O)CC[C@H](NC(=O)CCCCCCCCCCCCCCCCCCC(=O)O)C(=O)O)C(=O)O)NC(=O)[C@@H]1CCCN1)C(=O)N[C@@H](CC(N)=O)C(=O)N[C@@H](Cc1c[nH]c2ccccc12)C(=O)N[C@@H](CC(C)C)C(=O)N[C@H](C(=O)N[C@@H](CCCNC(=N)N)C(=O)N[C@@H](CCC(N)=O)C(=O)N[C@@H](CCCNC(=N)N)C(=O)N(C)[C@@H](Cc1ccc(O)cc1)C(N)=O)[C@@H](C)O
B4: Compound A6 (peptide)
peptide: PKPK([γGlu-γGlu-C20 diacid])APGKDASPEEWNRYYADARHYLNWLTRQR[NMeY]-NH2
modifications: N-terminus assumed
SMILES: CC(C)C[C@H](NC(=O)[C@H](Cc1ccc(O)cc1)NC(=O)[C@H](Cc1c[nH]cn1)NC(=O)[C@H](CCCNC(=N)N)NC(=O)[C@H](C)NC(=O)[C@H](CC(=O)O)NC(=O)[C@H](C)NC(=O)[C@H](Cc1ccc(O)cc1)NC(=O)[C@H](Cc1ccc(O)cc1)NC(=O)[C@H](CCCNC(=N)N)NC(=O)[C@H](CC(N)=O)NC(=O)[C@H](Cc1c[nH]c2ccccc12)NC(=O)[C@H](CCC(=O)O)NC(=O)[C@H](CCC(=O)O)NC(=O)[C@@H]1CCCN1C(=O)[C@H](CO)NC(=O)[C@H](C)NC(=O)[C@H](CC(=O)O)NC(=O)[C@H](CCCCN)NC(=O)CNC(=O)[C@@H]1CCCN1C(=O)[C@H](C)NC(=O)[C@H](CCCCNC(=O)CC[C@H](NC(=O)CC[C@H](NC(=O)CCCCCCCCCCCCCCCCCCC(=O)O)C(=O)O)C(=O)O)NC(=O)[C@@H]1CCCN1C(=O)[C@H](CCCCN)NC(=O)[C@@H]1CCCN1)C(=O)N[C@@H](CC(N)=O)C(=O)N[C@@H](Cc1c[nH]c2ccccc12)C(=O)N[C@@H](CC(C)C)C(=O)N[C@H](C(=O)N[C@@H](CCCNC(=N)N)C(=O)N[C@@H](CCC(N)=O)C(=O)N[C@@H](CCCNC(=N)N)C(=O)N(C)[C@@H](Cc1ccc(O)cc1)C(N)=O)[C@@H](C)O
B5: Compound A8 (peptide)
peptide: PKPEAPGKDASPK([γGlu-γGlu-C20 diacid])EWNRYYADARHYLNWLTRQR[NMeY]-NH2
modifications: N-terminus assumed
SMILES: CC(C)C[C@H](NC(=O)[C@H](Cc1ccc(O)cc1)NC(=O)[C@H](Cc1c[nH]cn1)NC(=O)[C@H](CCCNC(=N)N)NC(=O)[C@H](C)NC(=O)[C@H](CC(=O)O)NC(=O)[C@H](C)NC(=O)[C@H](Cc1ccc(O)cc1)NC(=O)[C@H](Cc1ccc(O)cc1)NC(=O)[C@H](CCCNC(=N)N)NC(=O)[C@H](CC(N)=O)NC(=O)[C@H](Cc1c[nH]c2ccccc12)NC(=O)[C@H](CCC(=O)O)NC(=O)[C@H](CCCCNC(=O)CC[C@H](NC(=O)CC[C@H](NC(=O)CCCCCCCCCCCCCCCCCCC(=O)O)C(=O)O)C(=O)O)NC(=O)[C@@H]1CCCN1C(=O)[C@H](CO)NC(=O)[C@H](C)NC(=O)[C@H](CC(=O)O)NC(=O)[C@H](CCCCN)NC(=O)CNC(=O)[C@@H]1CCCN1C(=O)[C@H](C)NC(=O)[C@H](CCC(=O)O)NC(=O)[C@@H]1CCCN1C(=O)[C@H](CCCCN)NC(=O)[C@@H]1CCCN1)C(=O)N[C@@H](CC(N)=O)C(=O)N[C@@H](Cc1c[nH]c2ccccc12)C(=O)N[C@@H](CC(C)C)C(=O)N[C@H](C(=O)N[C@@H](CCCNC(=N)N)C(=O)N[C@@H](CCC(N)=O)C(=O)N[C@@H](CCCNC(=N)N)C(=O)N(C)[C@@H](Cc1ccc(O)cc1)C(N)=O)[C@@H](C)O
B6: Compound A74 (peptide)
peptide: PKPEKPGK([γGlu-γGlu-C20 diacid])DASPEEWNRYYKDLRHYLNWLTRQRF-NH2
modifications: N-terminus assumed
SMILES: CC(C)C[C@H](NC(=O)[C@H](CC(=O)O)NC(=O)[C@H](CCCCN)NC(=O)[C@H](Cc1ccc(O)cc1)NC(=O)[C@H](Cc1ccc(O)cc1)NC(=O)[C@H](CCCNC(=N)N)NC(=O)[C@H](CC(N)=O)NC(=O)[C@H](Cc1c[nH]c2ccccc12)NC(=O)[C@H](CCC(=O)O)NC(=O)[C@H](CCC(=O)O)NC(=O)[C@@H]1CCCN1C(=O)[C@H](CO)NC(=O)[C@H](C)NC(=O)[C@H](CC(=O)O)NC(=O)[C@H](CCCCNC(=O)CC[C@H](NC(=O)CC[C@H](NC(=O)CCCCCCCCCCCCCCCCCCC(=O)O)C(=O)O)C(=O)O)NC(=O)CNC(=O)[C@@H]1CCCN1C(=O)[C@H](CCCCN)NC(=O)[C@H](CCC(=O)O)NC(=O)[C@@H]1CCCN1C(=O)[C@H](CCCCN)NC(=O)[C@@H]1CCCN1)C(=O)N[C@@H](CCCNC(=N)N)C(=O)N[C@@H](Cc1c[nH]cn1)C(=O)N[C@@H](Cc1ccc(O)cc1)C(=O)N[C@@H](CC(C)C)C(=O)N[C@@H](CC(N)=O)C(=O)N[C@@H](Cc1c[nH]c2ccccc12)C(=O)N[C@@H](CC(C)C)C(=O)N[C@H](C(=O)N[C@@H](CCCNC(=N)N)C(=O)N[C@@H](CCC(N)=O)C(=O)N[C@@H](CCCNC(=N)N)C(=O)N[C@@H](Cc1ccccc1)C(N)=O)[C@@H](C)O

Assays:
NPY2R = target: T1, NPY2R; assay: cell-based or functional assay
NPY5R = target: T2, NPY5R; assay: cell-based or functional assay

Binder	NPY2R pEC50 (NPY2R)	NPY5R pEC50 (NPY5R)
B1	9.7 -Log(EC50, M)	6 -Log(EC50, M)
B2	10.2 -Log(EC50, M)	8.5 -Log(EC50, M)
PKPEAPGK([γGlu-γGlu-C20 diacid])DASPKEWDRYYKDLRHYLNWLTRQRF-NH2 [Compound A76]	10.4 -Log(EC50, M)	8.9 -Log(EC50, M)
B3	7.7 -Log(EC50, M)	8 -Log(EC50, M)
B4	8.9 -Log(EC50, M)	7.7 -Log(EC50, M)
B5	9.6 -Log(EC50, M)	7.1 -Log(EC50, M)
B6	10.3 -Log(EC50, M)	9 -Log(EC50, M)
